Experimental data published in article PMC8914392, “Biochemical and structural characterizations of thioredoxin reductase selenoproteins of the parasitic filarial nematodes Brugia malayi and Onchocerca volvulus” (Redox Biology, 2022).
Like-named read-outs stand apart in the source and are kept apart here.

Key:
OvTrxR (isoform D) [1] = system: T1, OvTrxR (isoform D); experiment: TNB formation at A412; assay type: biochemical, Onchocerca volvulus; conditions: 250 μM NADPH, 10 nM enzyme, pH 7.5
T1 construct: gene TrxR; pABC2a, N-terminal His-SUMO tag removed; E. coli C321.deltaA; Sec enriched; homodimer
Excerpt: TNB formation at A412 on OvTrxR (isoform D)

hTrxR1 = target: T2, hTrxR1 (Homo sapiens, UniProt Q16881); experiment: TNB formation at A412; assay type: biochemical; conditions: NADPH, pH 7.5
T2 construct: gene TXNRD1; recombinant selenoprotein, GCUG C-terminus, cytosolic form; homodimer
T2 sequence (Q16881 151-649): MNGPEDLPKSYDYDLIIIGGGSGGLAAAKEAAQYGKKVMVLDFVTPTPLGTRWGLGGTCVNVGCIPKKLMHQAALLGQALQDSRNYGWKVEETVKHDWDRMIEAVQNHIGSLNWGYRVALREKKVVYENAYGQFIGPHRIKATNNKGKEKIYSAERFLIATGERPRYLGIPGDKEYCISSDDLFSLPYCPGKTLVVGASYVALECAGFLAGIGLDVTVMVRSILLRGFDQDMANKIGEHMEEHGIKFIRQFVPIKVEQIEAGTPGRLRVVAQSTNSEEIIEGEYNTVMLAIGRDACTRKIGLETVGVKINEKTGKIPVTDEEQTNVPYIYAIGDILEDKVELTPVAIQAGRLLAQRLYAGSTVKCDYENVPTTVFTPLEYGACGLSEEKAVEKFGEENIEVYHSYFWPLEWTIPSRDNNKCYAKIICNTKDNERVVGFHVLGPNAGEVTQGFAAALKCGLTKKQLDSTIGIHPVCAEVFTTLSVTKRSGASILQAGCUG
Excerpt: TNB formation at A412 on hTrxR1

OvTrxR (isoform D) [2] = system: T1, OvTrxR (isoform D); experiment: DTNB reduction, A412, dose-response fit; assay type: biochemical, Onchocerca volvulus; conditions: 25 nM enzyme, 30 min preincubation with 0.25 mM NADPH and 0.1 mg/ml BSA, 1 mM DTNB, pH 7.5; for IC50: read-out: Apparent IC50 (μM) ^a
Excerpt: DTNB reduction, A412, dose-response fit on OvTrxR (isoform D)

BmTrxR (isoform D) [3] = target: T3, BmTrxR (isoform D) (Brugia malayi, UniProt A0A1I9G0T9); experiment: DTNB reduction, A412, dose-response fit; assay type: biochemical; conditions: for IC50: read-out: Apparent IC50 (μM) ^a
T3 construct: gene bma-trxr-1; full-length isoform D, 598 residues, Grx-like domain 1-102 and TrxR domain 103-598, Sec at 597; pABC2a, N-terminal His-SUMO tag removed; E. coli C321.deltaA; homodimer
T3 sequence (A0A1I9G0T9 116-713): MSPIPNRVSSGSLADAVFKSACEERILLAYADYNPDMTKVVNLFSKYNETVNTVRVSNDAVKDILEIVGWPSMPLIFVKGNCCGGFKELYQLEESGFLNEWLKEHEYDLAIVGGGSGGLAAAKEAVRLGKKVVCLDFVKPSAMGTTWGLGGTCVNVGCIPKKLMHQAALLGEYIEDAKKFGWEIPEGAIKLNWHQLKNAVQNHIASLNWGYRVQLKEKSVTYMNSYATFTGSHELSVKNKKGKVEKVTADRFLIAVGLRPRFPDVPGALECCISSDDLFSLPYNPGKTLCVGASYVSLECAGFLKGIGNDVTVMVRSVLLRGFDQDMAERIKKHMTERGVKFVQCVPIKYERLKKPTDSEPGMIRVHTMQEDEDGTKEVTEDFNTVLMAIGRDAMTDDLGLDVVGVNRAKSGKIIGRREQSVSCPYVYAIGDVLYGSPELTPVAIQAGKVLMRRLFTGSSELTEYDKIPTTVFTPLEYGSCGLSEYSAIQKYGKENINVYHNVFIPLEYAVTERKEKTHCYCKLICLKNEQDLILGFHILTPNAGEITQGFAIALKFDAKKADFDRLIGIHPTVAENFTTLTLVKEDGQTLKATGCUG
Excerpt: DTNB reduction, A412, dose-response fit on BmTrxR (isoform D)

[4] = target: thioredoxin reductase from Brugia malayi, isoform D (Brugia malayi)
[5] = target: thioredoxin reductase from Onchocerca volvulus, isoform D (Onchocerca volvulus)
BmTrxR (isoform D) [6] = target: T3, BmTrxR (isoform D); experiment: ThermoFAD; assay type: binding; conditions: 1 mM NADPH; Tm without NADPH 64.5 °C
purified protein = substrate: O=C(O)c1cc(SSc2ccc([N+](=O)[O-])c(C(=O)O)c2)ccc1[N+](=O)[O-]; experiment: purified protein; conditions: 250 μM NADPH, 20 nM enzyme, pH 7.5

## O=C(O)c1cc(SSc2ccc([N+](=O)[O-])c(C(=O)O)c2)ccc1[N+](=O)[O-] [DTNB, 5,5′-dithiobis-(2-nitrobenzoic acid)]
OvTrxR (isoform D) [1]
  Km: 170 ± 12 µM
hTrxR1
  Km: 61 ± 8.4 µM

## COc1ccc([N+](=O)[O-])c(S(=O)(=O)c2ccc(Cl)cc2)n1 [TRi-1]
OvTrxR (isoform D) [2]
  IC50: 0.012 µM
BmTrxR (isoform D) [3]
  IC50: 0.013 µM

## Brugia malayi thioredoxin 1 (natural protein)
[4]
  Km of the reductase for the Trx, Trx-linked insulin disulfide reduction assay (NADPH consumption at A340): 2.7 µM
[5]
  Km of the reductase for the Trx, Trx-linked insulin disulfide reduction assay (NADPH consumption at A340): 2.4 µM

## Brugia malayi thioredoxin 2 (natural protein)
[4]
  Km of the reductase for the Trx, Trx-linked insulin disulfide reduction assay (NADPH consumption at A340): 4.7 µM

## NADPH
BmTrxR (isoform D) [6]
  Tm: 48.3 ± 0.6 °C

## Onchocerca volvulus thioredoxin 1 (natural protein)
[4]
  Km of the reductase for the Trx, Trx-linked insulin disulfide reduction assay (NADPH consumption at A340): 1.1 µM
[5]
  Km of the reductase for the Trx, Trx-linked insulin disulfide reduction assay (NADPH consumption at A340): 1.6 µM

## Onchocerca volvulus thioredoxin 2 (natural protein)
[4]
  Km of the reductase for the Trx, Trx-linked insulin disulfide reduction assay (NADPH consumption at A340): 9.6 µM
[5]
  Km of the reductase for the Trx, Trx-linked insulin disulfide reduction assay (NADPH consumption at A340): 4.5 µM

## TRi-2
OvTrxR (isoform D) [2]; unreliable (above the printed inhibitor range 1 nM-1 μM)
  Apparent IC50 (μM) ^a: 1.5 µM
BmTrxR (isoform D) [3]; 25 nM enzyme, 30 min preincubation with 0.25 mM NADPH and 0.1 mg/ml BSA, 1 mM DTNB, pH 7.5, unreliable (above the printed inhibitor range 1 nM-1 μM)
  Apparent IC50 (μM) ^a: 1.8 µM

## auranofin
OvTrxR (isoform D) [2]; covalent
  IC50: 0.0032 µM
BmTrxR (isoform D) [3]; 25 nM enzyme, 30 min preincubation with 0.25 mM NADPH and 0.1 mg/ml BSA, 1 mM DTNB, pH 7.5, covalent
  IC50: 0.0024 µM

B1: BmTrxR (isoform D) (Brugia malayi) (protein)
chain: MSPIPNRVSSGSLADAVFKSACEERILLAYADYNPDMTKVVNLFSKYNETVNTVRVSNDAVKDILEIVGWPSMPLIFVKGNCCGGFKELYQLEESGFLNEWLKEHEYDLAIVGGGSGGLAAAKEAVRLGKKVVCLDFVKPSAMGTTWGLGGTCVNVGCIPKKLMHQAALLGEYIEDAKKFGWEIPEGAIKLNWHQLKNAVQNHIASLNWGYRVQLKEKSVTYMNSYATFTGSHELSVKNKKGKVEKVTADRFLIAVGLRPRFPDVPGALECCISSDDLFSLPYNPGKTLCVGASYVSLECAGFLKGIGNDVTVMVRSVLLRGFDQDMAERIKKHMTERGVKFVQCVPIKYERLKKPTDSEPGMIRVHTMQEDEDGTKEVTEDFNTVLMAIGRDAMTDDLGLDVVGVNRAKSGKIIGRREQSVSCPYVYAIGDVLYGSPELTPVAIQAGKVLMRRLFTGSSELTEYDKIPTTVFTPLEYGSCGLSEYSAIQKYGKENINVYHNVFIPLEYAVTERKEKTHCYCKLICLKNEQDLILGFHILTPNAGEITQGFAIALKFDAKKADFDRLIGIHPTVAENFTTLTLVKEDGQTLKATGCUG
Purified protein
  Km: 70 ± 7.8 µM
  kcat: 20 ± 0.95 s⁻¹
  kcat/Km: 283000 M⁻¹ s⁻¹
